Experimental data: patent publication US20140322253A1 (FRED HUTCHINSON CANCER RESEARCH CENTER, published 2014)

B1: CCNA1 227-235 peptide FLDRFLSCM (peptide)
peptide: FLDRFLSCM
notes: Synthetic peptide; also called the 9-mer
B2: CCNA1 341-351 peptide SLIAAAAFCLA (peptide)
peptide: SLIAAAAFCLA
notes: Synthetic peptide; also called the 11-mer

What follows are binders tested against T1, HLA A*0201 on T2 cells (human) (assay: HLA stabilization assay on T2 cells, flow cytometry with anti-HLA A,B,C (W6/32)).
T1 construct: MHC class I on the surface of T2 cells; surface level read with FITC-labeled anti-HLA A,B,C (W6/32)
Procedure: T2 cells were pulsed with 100 μg/ml peptide in serum-free RPMI containing 1 μg/ml β-2-microglobulin (Sigma) for 16 h. Cells were then washed and incubated for 4 h in the presence of 5 μg/ml brefeldin A (Sigma), and then stained with FITC-labeled anti-HLA A, B, C (clone W6/32, BD Bioscience).

Binding result, binds:
SLIAAAAFCL [10-mer SLIAAAAFCL (10-mer 1)]
B1
B2
